Source: article PMC3870051 (Heart rhythm : the official journal of the Heart Rhythm …, 2013)

Target: NaV1.5 C-terminal domain (CTD), purified recombinant (UniProt Q14524 1773-1940)
Assay: ITC

Chain of NaV1.5 C-terminal domain (CTD), purified recombinant (Q14524 1773-1940): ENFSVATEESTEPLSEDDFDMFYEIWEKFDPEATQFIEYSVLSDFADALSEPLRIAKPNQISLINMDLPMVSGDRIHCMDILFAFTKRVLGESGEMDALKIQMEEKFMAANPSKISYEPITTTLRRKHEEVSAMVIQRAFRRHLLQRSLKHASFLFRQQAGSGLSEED

B1: Q7R-FGF12 (human FGF12-B with Q7R), purified recombinant (natural protein, UniProt P61328-2 1-181, looked up)
chain: MESKEPRLKGIVTRLFSQQGYFLQMHPDGTIDGTKDENSDYTLFNLIPVGLRVVAIQGVKASLYVAMNGEGYLYSSDVFTPECKFKESVFENYYVIYSSTLYRQQESGRAWFLGLNKEGQIMKGNRVKKTKPSSHFVPKPIEVCMYREPSLHEIGEKQGRSRKSSGTPTMNGGKVVNQDST
  fold reduction in binding affinity against WT-FGF12: 2 fold
